Laboratory results reported in PMC8691596.
Where two headings read alike, the source gives them in different places. Values belong to the binder of their own block, whether it stands above or below them.

Legend:
[1] = biological target: anti-CD20 IgG1 L234S/L235T/G236R (human); test: SPR; antibody captured by biotin-labelled anti-human κ light chain on streptavidin CM5; soluble Fcγ receptor injected at one concentration ([…] to 18 μM); HBS-EP+ pH 7.4, 25°C; Biacore 8K
[2] = biological target: anti-CD20 IgG1 L234S/L235T/G236R (human); test: as above; remark: listed apart in the source
[3] = biological target: human FcγRIIIa (CD16a) F158 allele, histidine-tagged recombinant (human) (UniProt P08637); test: SPR; His-tagged Fc receptor captured by anti-histidine antibody immobilised on CM5; antibody injected at 100 μg/mL for 1 min; response about 5 s before end of injection, blank subtracted; 25°C, HBS-EP+; Biacore T200
[4] = biological target: human FcγRIIIa (CD16a) V158 allele, histidine-tagged recombinant (human) (UniProt P08637); test: as above
[5] = biological target: rat FcγRI (CD64), histidine-tagged recombinant (rat); test: as above
[6] = remark: other sources report otherwise

response [1, 6]: < 1 RU
B1: human FcγRIIa H131 extracellular domain, C-terminal hexa-His (independently-made panel), P12318 34-217 (receptor)
chain: QAAAPPKAVLKLEPPWINVLQEDSVTLTCQGARSPESDSIQWFHNGNLIPTHTQPSYRFKANNNDSGEYTCQTGQTSLSDPVHLTVLSEWLVLQTPHLEFQEGETIMLRCHSWKDKPLVKVTFFQNGKSQKFSHLDPTFSIPQANHSHSGDYHCTGNIGYTLFSSKPVTITVQVPSMGSSSPMG

response [1]: < 1 RU
B2: human FcγRIIa R131 extracellular domain, C-terminal hexa-His (independently-made panel), P12318 34-217 (receptor)
chain: QAAAPPKAVLKLEPPWINVLQEDSVTLTCQGARSPESDSIQWFHNGNLIPTHTQPSYRFKANNNDSGEYTCQTGQTSLSDPVHLTVLSEWLVLQTPHLEFQEGETIMLRCHSWKDKPLVKVTFFQNGKSQKFSRLDPTFSIPQANHSHSGDYHCTGNIGYTLFSSKPVTITVQVPSMGSSSPMG
modifications: not checked

response [1, 6]: < 1 RU
B3: cynomolgus monkey FcγRIII extracellular domain, C-terminal hexa-His (receptor)
chain: GMRAEDLPKAVVFLEPQWYRVLEKDRVTLKCQGAYSPEDNSTRWFHNESLISSQTSSYFIAAARVNNSGEYRCQTSLSTLSDPVQLEVHIGWLLLQAPRWVFKEEESIHLRCHSWKNTLLHKVTYLQNGKGRKYFHQNSDFYIPKATLKDSGSYFCRGLIGSKNVSSETVNITITQDLAVSSISSFFPPGYQ

response [2]: < 1 RU
B4: mouse FcγRIIb extracellular domain, C-terminal hexa-His (receptor)
chain: THDLPKAVVKLEPPWIQVLKEDTVTLTCEGTHNPGNSSTQWFHNGRSIRSQVQASYTFKATVNDSGEYRCQMEQTRLSDPVDLGVISDWLLLQTPQLVFLEGETITLRCHSWRNKLLNRISFFHNEKSVRYHHYSSNFSIPKANHSHSGDYYCKGSLGRTLHQSKPVTITVQGPKSSRSLP

response [2]: < 1 RU
B5: mouse FcγRI extracellular domain, C-terminal hexa-His (independently-made panel) (receptor)
chain: EVVNATKAVITLQPPWVSIFQKENVTLWCEGPHLPGDSSTQWFINGTAVQISTPSYSIPEASFQDSGEYRCQIGSSMPSDPVQLQIHNDWLLLQASRRVLTEGEPLALRCHGWKNKLVYNVVFYRNGKSFQFSSDSEVAILKTNLSHSGIYHCSGTGRHRYTSAGVSITVKELFTTPVLRASVSSPFPEGSLVTLNCETNLLLQRPGLQLHFSFYVGSKILEYRNTSSEYHIARAEREDAGFYWCEVATEDSSVLKRSPELELQVLGPQSSAP

response [2]: < 1 RU
B6: mouse FcγRIII extracellular domain, C-terminal hexa-His (receptor)
chain: ALPKAVVKLDPPWIQVLKEDMVTLMCEGTHNPGNSSTQWFHNGRSIRSQVQASYTFKATVNDSGEYRCQMEQTRLSDPVDLGVISDWLLLQTPQRVFLEGETITLRCHSWRNKLLNRISFFHNEKSVRYHHYKSNFSIPKANHSHSGDYYCKGSLGSTQHQSKPVTITVQDPATTSSISLVWYHT

mean response [3]: 17 RU
mean response [4]: 63.2 RU
B7: anti-CD52 IgG1 L234A/L235A (LALA) (antibody, V domains shown)
VH: QVQLQESGPGLVRPSQTLSLTCTVSGFTFTDFYMNWVRQPPGRGLEWIGFIRDKAKGYTTEYNPSVKGRVTMLVDTSKNQFSLRLSSVTAADTAVYYCAREGHTAAPFDYWGQGSLVTVSS
VL: DIQMTQSPSSLSASVGDRVTITCKASQNIDKYLNWYQQKPGKAPKLLIYNTNNLQTGVPSRFSGSGSGTDFTFTISSLQPEDIATYYCLQHISRPRTFGQGTKLEIK

mean response [5]: 488 RU
B8: anti-CD52 IgG1 N297Q (aglycosyl) (antibody, V domains shown)
VH: QVQLQESGPGLVRPSQTLSLTCTVSGFTFTDFYMNWVRQPPGRGLEWIGFIRDKAKGYTTEYNPSVKGRVTMLVDTSKNQFSLRLSSVTAADTAVYYCAREGHTAAPFDYWGQGSLVTVSS
VL: DIQMTQSPSSLSASVGDRVTITCKASQNIDKYLNWYQQKPGKAPKLLIYNTNNLQTGVPSRFSGSGSGTDFTFTISSLQPEDIATYYCLQHISRPRTFGQGTKLEIK
